Reference: publication doi:10.1101/2021.07.23.453429 (bioRxiv, 2021)

B1: cyclophilin D (enzyme)
chain: not shown

Columns and labels:
full-length p53 = full-length p53 (UniProt P04637 1-393); test: SPR
cyclophilin D = molecular target: B1; test: SPR
cyclophilin D, sequence (P30405 43-207): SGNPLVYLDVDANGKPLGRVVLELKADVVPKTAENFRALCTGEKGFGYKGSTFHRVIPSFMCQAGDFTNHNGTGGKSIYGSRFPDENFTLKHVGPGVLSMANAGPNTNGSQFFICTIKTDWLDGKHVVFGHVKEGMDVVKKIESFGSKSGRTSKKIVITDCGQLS

Binder	Kd (full-length p53) [µM]	Kd (cyclophilin D) [µM]
B1	~1	
p53 NTD 20-70 (domain or fragment) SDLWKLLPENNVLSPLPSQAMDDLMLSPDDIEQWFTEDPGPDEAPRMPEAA		9.4
